Source: PMC11154713 (The Journal of Biological Chemistry, 2024)
Like-named read-outs stand apart in the source and are kept apart here. Bridges are numbered along the chain shown (N, C = ends). Where no end group is shown, it is not given here.

Columns and labels:
CB2R [1] = biological target: T1, CB2R (Homo sapiens, UniProt P34972); format: cell-based
CB2R [2] = biological target: T1, CB2R; assay: cell-based; format: cell-based; conditions: for decrease of efficacy of 2-AG to recruit β-arrestin-2 / decrease of efficacy of CP55940 to recruit β-arrestin-2: single point, peptide 10 μM; for decrease of efficacy of 2-AG to recruit β-arrestin-2: 2-AG 1 μM; for decrease of efficacy of CP55940 to recruit β-arrestin-2: CP55940 1 μM
[3] = test system: untransfected CHO-K1 cells; assay: cAMP assay in untransfected CHO-K1 cells; format: cell-based; conditions: vodo-C1 30 µM; CP55940 and 2-AG 10 µM and 1 µM, alone or with 10 μM vBCL1-4
CB2R [4] = biological target: T1, CB2R; assay: cAMP assay; format: cell-based; conditions: varying concentrations, inverse agonist control
CB2R [5] = biological target: T1, CB2R; assay: Radioligand displacement of [3H]-CP55940 at human CB2R membrane preparations; format: binding; conditions: peptide 100 nM and 10 μM; [3H]-CP55940 0.5 nM mixed with cold CP55940 4.5 nM
CB2R [6] = biological target: T1, CB2R; assay: cAMP assay in the absence of forskolin; format: cell-based; conditions: 10 µM peptide with varying CP55940, no forskolin

T1 sequence (P34972 whole entry): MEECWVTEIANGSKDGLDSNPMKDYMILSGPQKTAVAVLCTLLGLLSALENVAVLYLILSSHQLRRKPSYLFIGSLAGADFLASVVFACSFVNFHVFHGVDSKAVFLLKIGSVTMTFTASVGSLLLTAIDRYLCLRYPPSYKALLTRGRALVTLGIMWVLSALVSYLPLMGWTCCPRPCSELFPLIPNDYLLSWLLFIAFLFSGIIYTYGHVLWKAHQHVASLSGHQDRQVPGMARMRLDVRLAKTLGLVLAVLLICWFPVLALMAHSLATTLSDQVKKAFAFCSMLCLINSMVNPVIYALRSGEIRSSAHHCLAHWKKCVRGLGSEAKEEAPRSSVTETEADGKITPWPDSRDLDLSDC

Compound	changes in cAMP levels in untransfected cells [3]	EC50 fold shift relative to 2-AG (CB2R [1]; 10 μM peptide) [fold]	EC50 fold shift relative to WIN55,212-2 (CB2R [1]; 10 μM peptide) [fold]	decrease of efficacy of 2-AG to recruit β-arrestin-2 (CB2R [2])	decrease of efficacy of CP55940 to recruit β-arrestin-2 (CB2R [2])	other results
CCCCC/C=C\C/C=C\C/C=C\C/C=C\CCCC(=O)OC(CO)CO [2-AG, 2-arachidonoylglycerol, reference compound]	no changes in cAMP levels					EC50 (CB2R [1]; EC50 of agonist alone, agonist alone): 480 nM; EC50 (CB2R [2]): 600 nM
CCCCCCC(C)(C)c1ccc([C@@H]2C[C@H](O)CC[C@H]2CCCO)c(O)c1 [CP55940]	no changes in cAMP levels					
SR144528						effect on basal levels of CB2R activity (CB2R [4]): reduced the basal levels of CB2R activity
vBCL1: vodo-C1-inspired bicyclic loop peptide, loops 1 and 2, 10 residues, cyclized with 1,3,5-tris-(bromomethyl)-benzene (CGETCFTGKC; linker 1-5-10 via 1,3,5‑tris‑(bromomethyl)‑benzene (inferred))		~6	~6	no or only minor (not significant) changes	no or only minor (not significant) changes	
vBCL3: vodo-C1-inspired bicyclic loop peptide, loops 5 and 6, 15 residues, cyclized with 1,3,5-tris-(bromomethyl)-benzene (CEWPICTKNGDPLPC; linker 1-6-15 via 1,3,5‑tris‑(bromomethyl)‑benzene (inferred))		~6	~6	no or only minor (not significant) changes	no or only minor (not significant) changes	binding to the receptor (two-point displacement) (CB2R [5]): did not bind to the receptor; decrease of the efficacy of CP55940 (CB2R [1]; 10 μM peptide): ~40%; effect on basal activity (WIN55,212-2 curve) (CB2R [1]; 10 μM peptide): reduced the basal activity; effect on basal response (CP55940 curve) (CB2R [1]; 10 μM peptide): reduction in basal response; intrinsic inverse agonist activity (CB2R [6]): lacks intrinsic inverse agonist activity
